pKd: −log10 of the molar value. Read-outs that look alike come from different tables or passages of the source.
What was measured:
[1] = biological target: Elongation factor Tuf of Legionella pneumophila, recombinant, hexahistidine-tagged (Legionella pneumophila); experiment: ELISA
[2] = biological target: Translation elongation factor Tuf of Acinetobacter baumannii type strain ATCC 19606, recombinant, N-terminally hexahistidine-tagged (Acinetobacter baumannii ATCC 19606) (UniProt B7H1K5); experiment: ELISA; immobilised TufAb, plasminogen (10 ug/ml) with increasing concentrations of the lysine analog tranexamic acid (up to 50 mM)
[3] = biological target: Translation elongation factor Tuf of Acinetobacter baumannii type strain ATCC 19606, recombinant, N-terminally hexahistidine-tagged (Acinetobacter baumannii ATCC 19606) (UniProt B7H1K5); experiment: ELISA; immobilised TufAb, plasminogen (10 ug/ml) with increasing concentrations of NaBr (up to 1 M)
[4] = biological target: Translation elongation factor Tuf of Acinetobacter baumannii type strain ATCC 19606, recombinant, N-terminally hexahistidine-tagged (Acinetobacter baumannii ATCC 19606) (UniProt B7H1K5); experiment: ELISA; immobilised Tuf (5 ug/ml) incubated with increasing amounts of plasminogen; apparent dissociation constants by non-linear regression
[5] = biological target: Plasminogen (Homo sapiens) (UniProt P00747); settings: cited from earlier work
[6] = biological target: Plasminogen (Homo sapiens) (UniProt P00747); settings: cited from earlier work; remark: listed apart in the source

Human glu-plasminogen (natural protein)
pKd [1]: 7.16
percent decrease of binding with 50 mM tranexamic acid, against reactions without it [2]: 50%
percent of binding left with 1 M NaBr, against reactions without NaBr [3]: 55%
pKd [4]: 7.24

Enolase (from UniProt B8DTI9)
pKd [5]: 7.38

DnaK (from UniProt B8DT62)
pKd [6]: 7.96

— publication PMC4521846
